US20250136677A1 (ZOETIS SERVICES, published 2025)
Where two headings read alike, the source gives them in different places.

What was measured:
[1] = molecular target: T1, wildtype feline IL-31 protein (Feline_IL31_wildtype) (feline); assay: SPR (Biacore), IL-31 on chip, 1:1 fit
T1 construct: Full length feline IL-31 with C-terminal His tag, secreted from ExpiCHO cells; also called fIL-31
T1 chain: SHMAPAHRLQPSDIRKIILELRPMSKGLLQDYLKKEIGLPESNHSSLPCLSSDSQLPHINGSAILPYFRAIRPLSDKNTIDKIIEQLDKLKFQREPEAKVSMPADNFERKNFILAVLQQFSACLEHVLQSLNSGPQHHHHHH
In short: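 IL-31 was amine-coupled (NHS/EDC) to the chip at 5 μg/mL and quenched with ethanolamine, and candidate mAbs were flowed over it as analytes. Binding curves were fitted to a 1:1 model.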

[2] = molecular target: T2, canine IL-31 protein (Canine_IL31) (canine); assay: SPR (Biacore), IL-31 on chip, 1:1 fit
T2 chain: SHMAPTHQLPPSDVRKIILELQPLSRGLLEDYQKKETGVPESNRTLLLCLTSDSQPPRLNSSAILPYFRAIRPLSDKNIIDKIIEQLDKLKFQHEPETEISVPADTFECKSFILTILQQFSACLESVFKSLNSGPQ

[3] = molecular target: T1, wildtype feline IL-31 protein …; assay: cell-based or functional assay
[4] = molecular target: T3, equine IL-31 protein (Equine_IL31) (equine); assay: SPR (Biacore), IL-31 surface, single antibody concentration
T3 construct: Recombinant equine IL-31
T3 chain: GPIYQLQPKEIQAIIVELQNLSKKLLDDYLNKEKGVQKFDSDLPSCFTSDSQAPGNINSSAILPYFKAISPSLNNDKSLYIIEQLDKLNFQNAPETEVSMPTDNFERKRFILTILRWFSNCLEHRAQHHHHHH
Description: (§1) For the indirect ELISA method, antibody binding to wildtype and feline IL-31 15H05 mutant proteins was assessed. All nine canine monoclonal antibodies (ZIL1, ZIL8, ZIL8, ZIL11, ZIL69, ZIL94, ZIL154, ZIL159, and ZIL171) were capable of binding to wildtype feline IL-31 and binding was impacted by mutations in the mAb 15H05 epitope region confirming the correct binding phenotype determined during the initial screening used to identify them. In comparison, the 11E12 antibody bound to the wild-type feline IL-31 and its binding was not impacted by the mutations in the 15H05 epitope region as evidenced by the data in FIG. 4. To confirm binding, biacore analysis was performed using canine, feline, equine, human, feline 15H05 mutant, and feline 11E12 mutant IL-31 proteins as surfaces and a single test concentration of antibody. Similar to ELISA observations, all antibodies tested bound to wildtype feline IL-31. In agreement with the data described above in this section, mouse antibodies 11E12 and 15H05 both bound to canine and feline IL-31 surfaces. Three additional antibodies where shown to have this dual binding property, ZIL69 (partial canine binding), ZIL94, and ZIL159. From this group of nine fully canine antibodies, only ZIL1 and ZIL9 cross-reacted with equine IL-31. Of note, antibody 15H05 was the only one of all assayed herein that bound to canine, feline, and equine IL-31 indicating some level of epitope conservation across the three species. In contrast, none of the antibodies described herein bound to human IL-31. Additional biacore surfaces were used to verify ELISA observations showing differential binding of antibodies to wildtype feline IL-31 and two proteins with mutations in the 15H05 (15H05 mutant) or 11E12 (11E12 mutant) epitopes.

[5] = molecular target: T4, mutant feline IL-31 15H05 protein (Feline_IL31_15H05_mutant) (feline); assay: indirect ELISA, IL-31 protein coated
T4 sequence: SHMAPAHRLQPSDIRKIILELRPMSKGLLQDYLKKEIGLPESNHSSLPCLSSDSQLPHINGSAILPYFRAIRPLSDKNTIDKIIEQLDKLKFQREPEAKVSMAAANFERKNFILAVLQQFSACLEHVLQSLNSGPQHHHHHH

[6] = molecular target: T2, canine IL-31 protein (Canine_IL31); assay: cell-based or functional assay
[7] = molecular target: T1, wildtype feline IL-31 protein …; assay: cell-based or functional assay
[8] = molecular target: T5, mutant feline IL-31 15H05 protein (Feline_IL31_15H05_mutant) (feline); assay: indirect ELISA, IL-31 protein coated
T5 construct: also called feline 15H05 mutant; 15H05 IL-31 mutant
T5 chain: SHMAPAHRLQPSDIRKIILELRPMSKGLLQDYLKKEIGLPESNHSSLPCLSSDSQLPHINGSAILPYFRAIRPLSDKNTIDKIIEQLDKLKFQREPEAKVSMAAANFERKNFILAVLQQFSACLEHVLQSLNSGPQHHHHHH
Description: as §1, with “epitopes. […] In agreement with the ELISA results, all fully canine antibodies were impacted by the 15H05 mutation with the exception of ZIL94, ZIL154, and ZIL171 (partially affected). Differing results can be attributed to differences in the two assay methodologies.” for “epitopes.”

[9] = molecular target: T1, wildtype feline IL-31 protein …; assay: indirect ELISA, IL-31 protein coated
Description: as §1, with “epitopes. […] In agreement with the ELISA results, all fully canine antibodies were impacted by the 15H05 mutation with the exception of ZIL94, ZIL154, and ZIL171 (partially affected). Differing results can be attributed to differences in the two assay methodologies.” for “epitopes.”

human IL-31 = molecular target: T6, human IL-31 (human, UniProt Q6EBC2 24-164); assay: SPR (Biacore), IL-31 surface, single antibody concentration
T6 sequence: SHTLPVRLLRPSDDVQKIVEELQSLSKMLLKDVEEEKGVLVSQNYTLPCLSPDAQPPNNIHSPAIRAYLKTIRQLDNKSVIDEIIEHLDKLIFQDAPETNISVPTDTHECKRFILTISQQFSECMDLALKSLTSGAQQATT
Description: as §1

B1: Feline 11E12 1.1 (antibody, V domains shown)
VH: QVLLVQSGAEVKKPGASVKIFCKASGYSFTYYDINWLRQAPEQGLEWMGWIFPGDGGTKYNETFKGRLTLTADTSTNTVYMELSSLRSADTAMYYCARGGTSVIRDAMDYWGQGALVTVSS
VL: EIQMTQSPSSLSASPGDRVTITCRASESVDNYGISFMHWYQQKPGKVPKLLIYRASNLESGVPSRFSGSGSGTDFTLTISSLEPEDAATYYCQQSNKDPLTFGQGT
notes: Variable chains were subcloned into plasmids with 'the respective feline heavy or kappa constant region'; Made in HEK 293 cells; also called Felinized 11E12 1.1; felinized 11E12
With B1 the Kd [1] was 22.2 nM, the koff [1] was 0.000444 s⁻¹ and the kon [1] was 20000 M⁻¹ s⁻¹. The koff [2] was 0.000141 s⁻¹, the kon [2] was 185000 M⁻¹ s⁻¹ and the “potency against feline IL-31 in the feline FCWF assay (pSTAT3)” value [3] was about 2 fold.

B2: ZIL69 (recombinant fully canine antibody) (antibody, V domains shown)
VH: EVQLVESGGDLVKPAGSLRLSCVASGFTFSSYAMKWVRQAPGKGLQWVATINNDGTRTGYADAVRGRFTISKDNAKNTLYLQMDSLRADDTAVYYCTKGNAESGCTGDHCPPYWGQGTLVTVSS
VL: SSVLTQPPSVSVSLGQTATISCSGESLNKYYAQWFQQKAGQAPVLVIYKDTERPSGIPDRFSGSSAGNTHTLTISGARAEDEADYYCESAVSSETNVFGSGTQLTVLR
notes: also called CAN-ZIL69
For B2, the binding result [4] was “no binding” and the ELISA OD [5] was 0.92 OD.

B3: mouse:feline 15H05 chimera (antibody)
heavy: QVQLQQSAAELARPGASVKMSCKTSGYTFTSYTIHWIKQRPGQGLEWIGNINPTSGYTENNQRFKDKTTLTVDRSSNTAYLQLHSLTSEDSAVYFCARWGFKYDGEWSFDVWGAGTTVTVSSASTTAPSVFPLAPSCGTTSGATVALACLVLGYFPEPVTVSWNSGALTSGVHTFPAVLQASGLYSLSSMVTVPSSRWLSDTFTCNVAHPPSNTKVDKTVRKTDHPPGPKPCDCPKCPPPEAAGAPSIFIFPPKPKDTLSISRTPEVTCLVVDLGPDDSDVQITWFVDNTQVYTAKTSPREEQFNSTYRVVSVLPILHQDWLKGKEFKCKVNSKSLPSPIERTISKAKGQPHEPQVYVLPPAQEELSRNKVSVTCLIKSFHPPDIAVEWEITGQPEPENNYRTTPPQLDSDGTYFVYSKLSVDRSHWQRGNTYTCSVSHEALHSHHTQKSLTQSPGK
light: DIQMNQSPSSLSASLGDTITVTCRASQGISIWLSWYQQKPGNIPKVLINKASNLHIGVPPRFSGSGSGTHFTLTITSLQPEDIATYYCLQSQTYPLTFGGGTKLEINRSDAQPSVFLFQPSLDELHTGSASIVCILNDFYPKEVNVKWKVDGVVQNKGIQESTTEQNSKDSTYSLSSTLTMSSTEYQSHEKFSCEVTHKSLASTLVKSFQRSECQRE
notes: Mouse variable regions on feline IgG constant regions; made in HEK 293 cells; also called 15H05 mouse feline chimera
For B3, the IC50 against canine IL-31 (pSTAT3; cell type not stated for this pair of values) [6] was 28.6 µg/ml, the “IC50, inhibition of feline IL-31-induced STAT3 phosphorylation, canine DH82 cells” value [7] was 5.59 µg/mL and the “IC50, inhibition of feline IL-31-induced STAT3 phosphorylation, feline FCWF4 cells” value [7] was 3.25 µg/mL. For the same binder, the Kd [2] was 0.0129 nM, the koff [2] was 1.62e-07 s⁻¹ and the kon [2] was 12600 M⁻¹ s⁻¹. For the same binder, the “IC50 against feline IL-31 induced pSTAT3 signaling in feline FCWF4 cells, relative to the mouse:feline 11E12 chimera” value [3] was about 2 fold.

B4: mouse anti IL-31 antibody 11E12 (antibody, V domains shown)
VH: QVQLQQSGAELVKPGASVKLSCKASGYTFKYYDINWVRQRPEQGLEWIGWIFPGDGGTKYNETFKGKATLTTDKSSSTAYMQLSRLTSEDSAVYFCARGGTSVIRDAMDYWGQGTSVTVSS
VL: DIVLTQSPASLAVSLGQRATISCRASESVDNYGISFMHWYQQKPGQPPKLLIYRASNLESGIPARFSGSGSRTDFTLTINPVETDDVATYYCQQSNKDPLTFGAGTKLELK
notes: Mouse monoclonal comparison antibody; also called MU-11E12; mouse 11E12
In the case of B4, the “IC50, inhibition of feline IL-31-induced STAT3 phosphorylation, canine DH82 cells” value [7] is reported as 2.47 µg/mL, the “IC50, inhibition of feline IL-31-induced STAT3 phosphorylation, feline FCWF4 cells” value [7] is reported as 2.01 µg/mL and the “ELISA OD” value [8] is reported as 1.33 OD. For the same binder, the “ELISA OD” value [9] was 1.15 OD, the binding result [4] was “no binding” and the binding result (human IL-31) was “no binding”. The Kd [1] was 0.738 nM, the koff [1] was 0.000123 s⁻¹ and the kon [1] was 167000 M⁻¹ s⁻¹. The Kd [2] was 0.000763 nM, the koff [2] was 4.8e-07 s⁻¹ and the kon [2] was 629000 M⁻¹ s⁻¹.

B5: ZIL11 (recombinant fully canine antibody) (antibody, V domains shown)
VH: EVQLVESGGDLVKPAGSLRLSCVASGFTFRTYVMNWVRQAPGKGLQWVASINGGGSSPTYADAVRGRFTVSRDNAQNSLFLQMNSLRAEDTAVYFCVVSMVGPFDYWGQGTLVTVSS
VL: SSVLTQPPSVSVSLGQTATISCSGESLSNYYAQWFQQKAGQAPVLVIYKDTERPSGIPDRFSGSSSGNTHTLTISGARAEDEADYYCESAVSSDTIVFGGGTHLTVL
notes: also called CAN-ZIL11; copies: 2 + 2
B5 was tested, and the binding result [4] was “no binding”, the binding result (human IL-31) was “no binding” and the ELISA OD [5] was 0.33 OD.

B6: ZIL9 (recombinant fully canine antibody) (antibody, V domains shown)
VH: EVQLVESGGDLVKPPGSLRLSCVASGFTFSSYDMTWVRQAPGKGLQWVADVNSGGTGTAYAVAVKGRFTISRDNAKKTLYLQMNSLRAEDTAVYYCAKLGVRDGLSVWGQGTLVTVSS
VL: SSVLTQPPSVSVSLGQTATISCSGESLNEYYTQWFQQKAGQAPVLVIYRDTERPSGIPDRFSGSSSGNTHTLTISGARAEDEADYYCESAVDTGTLVFGGGTHLAVLR
With B6 the ELISA OD [5] was 0.73 OD.

B7: ZIL94 (recombinant fully canine antibody) (antibody, V domains shown)
VH: EVQLVDSGGDLVKPGGSLRLSCVASGFTFSTYFMSWVRQAPGRGLQWVALISSDGSGTYYADAVKGRFTISRDNAKNTLYLQMNSLRAEDTAMYYCAIFWRAFNDWGQGTLVTVSS
VL: QTVVIQEPSLSVSPGGTVTLTCGLNSGSVSTSNYPGWYQQTRGRTPRTIIYDTGSRPSGVPNRFSGSISGNKAALTITGAQPEDEADYYCSLYTDSDILVFGGGTHLTVLR
notes: also called CAN-ZIL94
In the case of B7, the “ELISA OD” value [8] is reported as 1.3 OD, the “ELISA OD” value [9] is reported as 1.67 OD and the binding result [4] is reported as “no binding”.

B8: ZIL8 (recombinant fully canine antibody) (antibody, V domains shown)
VH: EVQLVESGGDLVKPAGSLRLSCVASGFTFSDYAMSWVRQAPGRGLQWVAGIDSVGSGTSYADAVKGRFTISRDDAKNTLYLQMFNLRAEDTAIYYCASGFPGSFEHWGQGTLVTVSS
VL: QSVLTQPASVSGSLGQKVTISCTGSSSNIGSGYVGWYQQLPGTGPRTLIYYNSDRPSGVPDRFSGSRSGTTATLTISGLQAEDEADYYCSVYDRTFNAVFGGGTHLTVL
notes: also called CAN-ZIL8; copies: 2 + 2
B8: no binding [4]; no binding (human IL-31).
